Laboratory results reported in patent publication US20230094162A1 (MacroGenics, published 2023).
Where two headings read alike, the source gives them in different places.

Legend:
[1] = biological target: T1, CD137 expressed on the cell surface (CHO/CD137 cells) (UniProt Q07011 24-255, limits assumed); experiment: flow cytometry (FACS) on CHO cells expressing CD137, MFI
T1 construct: whole, on cells; also called cell surface CD137; Jurkat-NF-κB-Luc reporter cells overexpressing CD137
Method: FACS analysis to evaluate the test articles for binding to cell surface CD137 was performed essentially as follows: 100 μL of CHO cells expressing CD137 (CHO/CD137) (1.0×10⁵ to 1×10⁶ cells/well) and 100 μL of serially diluted test article or control was added to each well of microtiter assay plate(s), mixed and incubated at RT for about 30 min. The cells were washed with FACS Buffer and secondary antibody (goat anti-human-APC, PE, or FITC) was then added to each well (1:1000), after which, the components were mixed and the wells were incubated at RT for about 30 min. Cells were washed and resuspended in 250 μL FACS Buffer and analyzed by flow cytometry (BD LSR Fortessa or FACSCanto II) for cell events collection. Data analysis were performed via FloJo v10.

[2] = biological target: T2, PD-L1 expressed on the cell surface (CHO/PD-L1 cells) (UniProt Q9NZQ7 19-290); experiment: flow cytometry (FACS) on CHO cells expressing PD-L1, MFI
T2 construct: whole, on cells; also called PD-L1 on JIMT-1 cells
Method: FACS analysis to evaluate the test articles for binding to cell surface PD-L1 was performed essentially as follows: 100 μL of CHO cells expressing PD-L1 (CHO/PD-L1) (1.0×10⁵ to 1.0×10⁶ cells/well) and 100 μL of serially diluted test article was added to each well of microtiter assay plate(s), mixed and incubated at RT for about 30 min. The cells were washed with FACS Buffer and secondary antibody (goat anti-human-FITC, PE, or APC) was then added to each well, after which, the components were mixed and the wells were incubated at RT for about 30 min. Cells were washed and resuspended in 250 μL FACS Buffer and analyzed by flow cytometry (BD LSR Fortessa or FACSCanto II) for cell events collection. Data analysis were performed via FloJo v10.
Test articles were used at 10 μg/mL and five-fold serial dilutions for the FACS analysis and at 50 μg/mL and five-fold serial dilutions for the PD-L1 reporter assay.

[3] = biological target: T2, PD-L1 expressed on the cell surface …; experiment: cell-based or functional assay
[4] = biological target: T2, PD-L1 expressed on the cell surface …; experiment: flow cytometry (FACS) on JIMT-1 cells (PD-L1 positive), MFI
[5] = biological target: T1, CD137 expressed on the cell surface …; experiment: flow cytometry (FACS) on CHO cells expressing CD137, MFI; remark: listed apart in the source
[6] = biological target: T2, PD-L1 expressed on the cell surface …; experiment: cell-based or functional assay; remark: listed apart in the source
[7] = biological target: T2, PD-L1 expressed on the cell surface …; experiment: cell-based or functional assay; remark: listed apart in the source

T1 sequence (Q07011 24-255 limits assumed): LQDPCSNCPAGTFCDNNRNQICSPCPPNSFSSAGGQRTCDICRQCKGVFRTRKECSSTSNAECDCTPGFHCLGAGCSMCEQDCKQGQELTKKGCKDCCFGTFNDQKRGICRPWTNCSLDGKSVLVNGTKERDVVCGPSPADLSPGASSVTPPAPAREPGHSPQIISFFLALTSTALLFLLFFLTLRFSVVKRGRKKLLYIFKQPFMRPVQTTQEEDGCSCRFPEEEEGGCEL
T2 sequence (Q9NZQ7 19-290): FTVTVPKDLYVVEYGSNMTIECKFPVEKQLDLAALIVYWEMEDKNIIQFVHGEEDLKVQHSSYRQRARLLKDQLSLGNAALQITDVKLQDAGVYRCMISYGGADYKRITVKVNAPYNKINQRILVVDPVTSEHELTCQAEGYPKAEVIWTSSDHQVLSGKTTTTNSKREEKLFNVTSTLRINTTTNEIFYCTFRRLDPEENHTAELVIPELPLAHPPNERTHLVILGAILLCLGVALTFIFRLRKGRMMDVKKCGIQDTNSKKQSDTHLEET

Binder	EC50 (read off the curve) [1] [mg/L]	EC50 (read off the curve) [2] [mg/L]	EC50 (read off the curve) [3] [mg/L]	EC50 (read off the curve) [4] [mg/L]	EC50 (read off the curve) [5] [mg/L]	EC50 (read off the curve) [6] [mg/L]	EC50 (read off the curve) [7] [mg/L]
DART-A1 (bispecific antibody) first and third polypeptide chains: DIQMTQSPSSLSASVGDRVTITCKASQDVNTAVAWYQQKPGKAPKLLIYWASTRHTGVPSRFSGSGSGTDFTLTISSLQPEDFATYYCQQHYNTPLTFGQGTKVEIKGGGSGGGGQVQLQESGPGLVKPSETLSLTCTVSGGSISSYYWSWIRQPPGKGLEWIGRIYTSGSTNYNPSLKSRVTMSVDTSKNQFSLKLSSVTAADTAVYYCARDGWYDEDYNYYGMDVWGQGTTVTVSSGGCGGGEVAACEKEVAALEKEVAALEKEVAALEKLEPKSADKTHTCPPCPAPEAAGGPSVFLFPPKPKDTLYITREPEVTCVVVDVSHEDPEVKFNWYVDGVEVHNAKTKPREEQYNSTYRVVSVLTVLHQDWLNGKEYKCKVSNKALPAPIEKTISKAKGQPREPQVYTLPPSREEMTKNQVSLTCLVKGFYPSDIAVEWESNGQPENNYKTTPPVLDSDGSFFLYSKLTVDKSRWQQGNVFSCSVMHEALHNHYTQKSLSLSPGK second and fourth polypeptide chains: EIVMTQSPATLSLTPGERATLSCRASQSVSSNYLSWFQQIPGQAPRLLIYGASTRATGIPARFSGSGSGTDFTLTISSLQPEDFAVYYCQQDYDLPWTFGQGTKVEIKGGGSGGGGEVQLVESGGGLVQPGGSLRLSCAASGFTFSSYTMSWVRQAPGKGLEWVAYISIGGGTTYYPDTVKGRFTISRDNAKNSLYLQMNSLRAEDTAVYYCARQGLPYYFDYWGQGTLVTVSSGGCGGGKVAACKEKVAALKEKVAALKEKVAALKE			~0.1	~0.007			
DART-A6 (bispecific antibody, Tetravalent; CD137 MAB-6(1.3) and hPD-L1 MAB-2(3.2)) chain 1: DIQMTQSPSSLSASVGDRVTITCKASQDVNEAVAWYQQKPGKAPKLLIYWASTRHTGVPSRFSGSGSGTDFTLTISSLQPEDFATYYCQQHYNTPLTFGQGTKVEIKGGGSGGGGQVQLQESGPGLVKPSETLSLTCTVSGGSISSYYWSWIRQPPGKGLEWIGRIYTSGSTNYNPSLKSRVTMSVDTSKNQFSLKLSSVTAADTAVYYCARDGWYDEDYNYYGMDVWGQGTTVTVSSGGCGGGEVAACEKEVAALEKEVAALEKEVAALEKLEPKSADKTHTCPPCPAPEAAGGPSVFLFPPKPKDTLYITREPEVTCVVVDVSHEDPEVKFNWYVDGVEVHNAKTKPREEQYNSTYRVVSVLTVLHQDWLNGKEYKCKVSNKALPAPIEKTISKAKGQPREPQVYTLPPSREEMTKNQVSLTCLVKGFYPSDIAVEWESNGQPENNYKTTPPVLDSDGSFFLYSKLTVDKSRWQQGNVFSCSVMHEALHNHYTQKSLSLSPGK chain 2: EIVMTQSPATLSLSPGERATLSCRASQSVSSNYLSWFQQKPGQAPRLLIYGASTRATGIPARFSGSGSGTDFTLTISSLQPEDFAVYYCQQDYDLPWTFGQGTKVEIKGGGSGGGGEVQLVESGGGLVQPGGSLRLSCAASGFTFSSYTMSWVRQAPGKGLEWVAYISIKGGTTYYPDTVKGRFTISRDNAKNSLYLQMNSLRAEDTAVYYCARQGLPYYGDYWGQGTLVTVSSGGCGGGKVAACKEKVAALKEKVAALKEKVAALKE	~0.05				~0.02	~0.2	
DART-A4 (bispecific antibody, Tetravalent; CD137 MAB-6(1.1) and hPD-L1 MAB-2(3.2)) chain 1: DIQMTQSPSSLSASVGDRVTITCKASQDVNEAVAWYQQKPGKAPKLLIYWASTRHTGVPSRFSGSGSGTDFTLTISSLQPEDFATYYCQQHYNTPLTFGQGTKVEIKGGGSGGGGQVQLQESGPGLVKPSETLSLTCTVSGGSISSYYWSWIRQPPGKGLEWIGRIYTSGSTNYNPSLKSRVTMSVDTSKNQFSLKLSSVTAADTAVYYCARDGWYDEDYNYYGMDVWGQGTTVTVSSGGCGGGEVAACEKEVAALEKEVAALEKEVAALEKLEPKSADKTHTCPPCPAPEAAGGPSVFLFPPKPKDTLYITREPEVTCVVVDVSHEDPEVKFNWYVDGVEVHNAKTKPREEQYNSTYRVVSVLTVLHQDWLNGKEYKCKVSNKALPAPIEKTISKAKGQPREPQVYTLPPSREEMTKNQVSLTCLVKGFYPSDIAVEWESNGQPENNYKTTPPVLDSDGSFFLYSKLTVDKSRWQQGNVFSCSVMHEALHNHYTQKSLSLSPGK chain 2: EIVMTQSPATLSLTPGERATLSCRASQSVSSNYLSWFQQIPGQAPRLLIYGASTRATGIPARFSGSGSGTDFTLTISSLQPEDFAVYYCQQDYDLPWTFGQGTKVEIKGGGSGGGGEVQLVESGGGLVQPGGSLRLSCAASGFTFSSYTMSWVRQAPGKGLEWVAYISIKGGTTYYPDTVKGRFTISRDNAKNSLYLQMNSLRAEDTAVYYCARQGLPYYGDYWGQGTLVTVSSGGCGGGKVAACKEKVAALKEKVAALKEKVAALKE	~0.04		~0.08	~0.004	~0.02	~0.2	~0.1

Results, then the binder that gave them:

EC50 (read off the curve) [1] [mg/L]	EC50 (read off the curve) [2] [mg/L]	EC50 (read off the curve) [3] [mg/L]	EC50 (read off the curve) [4] [mg/L]	EC50 (read off the curve) [5] [mg/L]	EC50 (read off the curve) [6] [mg/L]	EC50 (read off the curve) [7] [mg/L]	Binder
~0.02	~0.08						TRIDENT-A (bispecific antibody, human IgG1, kappa, L234A L235A, Trivalent: two CD137 MAB-6(1.1) sites, one hPD-L1 MAB-2(1.1) Fab-type site) chain 1: EIVMTQSPATLSLTPGERATLSCRASQSVSSNYLSWFQQIPGQAPRLLIYGASTRATGIPARFSGSGSGTDFTLTISSLQPEDFAVYYCQQDYDLPWTFGQGTKVEIKGGGSGGGGQVQLQESGPGLVKPSETLSLTCTVSGGSISSYYWSWIRQPPGKGLEWIGRIYTSGSTNYNPSLKSRVTMSVDTSKNQFSLKLSSVTAADTAVYYCARDGWYDEDYNYYGMDVWGQGTTVTVSSGGCGGGEVAALEKEVAALEKEVAALEKEVAALEKGGGDKTHTCPPCPAPEAAGGPSVFLFPPKPKDTLYITREPEVTCVVVDVSHEDPEVKFNWYVDGVEVHNAKTKPREEQYNSTYRVVSVLTVLHQDWLNGKEYKCKVSNKALPAPIEKTISKAKGQPREPQVYTLPPSREEMTKNQVSLWCLVKGFYPSDIAVEWESNGQPENNYKTTPPVLDSDGSFFLYSKLTVDKSRWQQGNVFSCSVMHEALHNHYTQKSLSLSPGK chain 2: EIVMTQSPATLSLTPGERATLSCRASQSVSSNYLSWFQQIPGQAPRLLIYGASTRATGIPARFSGSGSGTDFTLTISSLQPEDFAVYYCQQDYDLPWTFGQGTKVEIKGGGSGGGGQVQLQESGPGLVKPSETLSLTCTVSGGSISSYYWSWIRQPPGKGLEWIGRIYTSGSTNYNPSLKSRVTMSVDTSKNQFSLKLSSVTAADTAVYYCARDGWYDEDYNYYGMDVWGQGTTVTVSSGGCGGGKVAALKEKVAALKEKVAALKEKVAALKE heavy: EVQLVESGGGLVQPGGSLRLSCAASGFTFSSYTMSWVRQAPGKGLEWVAYISIGGGTTYYPDTVKGRFTISRDNAKNTLYLQMNSLKTEDTAVYYCARQGLPYYFDYWGQGTLVTVSSASTKGPSVFPLAPSSKSTSGGTAALGCLVKDYFPEPVTVSWNSGALTSGVHTFPAVLQSSGLYSLSSVVTVPSSSLGTQTYICNVNHKPSNTKVDKRVEPKSCDKTHTCPPCPAPEAAGGPSVFLFPPKPKDTLYITREPEVTCVVVDVSHEDPEVKFNWYVDGVEVHNAKTKPREEQYNSTYRVVSVLTVLHQDWLNGKEYKCKVSNKALPAPIEKTISKAKGQPREPQVYTLPPSREEMTKNQVSLSCAVKGFYPSDIAVEWESNGQPENNYKTTPPVLDSDGSFFLVSKLTVDKSRWQQGNVFSCSVMHEALHNRYTQKSLSLSPGK light: DIQMTQSPSSLSASVGDRVTITCKASQDVNTAVAWYQQKPGKAPKLLIYWASTRHTGVPSRFSGSGSGTDFTLTISSLQPEDFATYYCQQHYNTPLTFGQGTKVEIKRTVAAPSVFIFPPSDEQLKSGTASVVCLLNNFYPREAKVQWKVDNALQSGNSQESVTEQDSKDSTYSLSSTLTLSKADYEKHKVYACEVTHQGLSSPVTKSFNRGEC
				~0.02			DART-A5 (bispecific antibody, Tetravalent; CD137 MAB-6(1.2) and hPD-L1 MAB-2(3.2)) chain 1: DIQMTQSPSSLSASVGDRVTITCKASQDVNEAVAWYQQKPGKAPKLLIYWASTRHTGVPSRFSGSGSGTDFTLTISSLQPEDFATYYCQQHYNTPLTFGQGTKVEIKGGGSGGGGQVQLQESGPGLVKPSETLSLTCTVSGGSISSYYWSWIRQPPGKGLEWIGRIYTSGSTNYNPSLKSRVTMSVDTSKNQFSLKLSSVTAADTAVYYCARDGWYDEDYNYYGMDVWGQGTTVTVSSGGCGGGEVAACEKEVAALEKEVAALEKEVAALEKLEPKSADKTHTCPPCPAPEAAGGPSVFLFPPKPKDTLYITREPEVTCVVVDVSHEDPEVKFNWYVDGVEVHNAKTKPREEQYNSTYRVVSVLTVLHQDWLNGKEYKCKVSNKALPAPIEKTISKAKGQPREPQVYTLPPSREEMTKNQVSLTCLVKGFYPSDIAVEWESNGQPENNYKTTPPVLDSDGSFFLYSKLTVDKSRWQQGNVFSCSVMHEALHNHYTQKSLSLSPGK chain 2: EIVMTQSPATLSLSPGERATLSCRASQSVSSNYLSWYQQKPGQAPRLLIYGASTRATGIPARFSGSGSGTDFTLTISSLQPEDFAVYYCQQDYDLPWTFGQGTKVEIKGGGSGGGGEVQLVESGGGLVQPGGSLRLSCAASGFTFSSYTMSWVRQAPGKGLEWVAYISIKGGTTYYPDTVKGRFTISRDNAKNSLYLQMNSLRAEDTAVYYCARQGLPYYGDYWGQGTLVTVSSGGCGGGKVAACKEKVAALKEKVAALKEKVAALKE
